{"source": "paper PMC11543921", "about": "(iScience, 2024)", "target": "the molecule itself", "test": "MALDI-TOF MS", "data": [{"protein": "human recombinant glutamate-oxaloacetate transaminase (enzyme, UniProt P17174 1-413, looked up) MAPPSVFAEVPQAQPVLVFKLTADFREDPDPRKVNLGVGAYRTDDCHPWVLPVVKKVEQKIANDNSLNHEYLPILGLAEFRSCASRLALGDDSPALKEKRVGGVQSLGGTGALRIGADFLARWYNGTNNKNTPVYVSSPTWENHNAVFSAAGFKDIRSYRYWDAEKRGLDLQGFLNDLENAPEFSIVVLHACAHNPTGIDPTPEQWKQIASVMKHRFLFPFFDSAYQGFASGNLERDAWAIRYFVSEGFEFFCAQSFSKNFGLYNERVGNLTVVGKEPESILQVLSQMEKIVRITWSNPPAQGARIVASTLSNPELFEEWTGNVKTMADRILTMRSELRARLEALKTPGTWNHITDQIGMFSFTGLNPKQVEYLVNEKHIYLLPSGRINVSGLTTKNLDYVATSIHEAVTKIQ", "values": [{"measurement": "stoichiometry N", "result": 2}]}]}
